Data as given in the Human Domainome abundance scans (Beltran et al. 2025).
± gives the uncertainty stated by the source.

B1: 3'-5' exoribonuclease 1, residues 65 to 114; numbered along this chain, Q8IV48 (parent)
chain: VYKEIAITNGCINRMSKEELRAKLSEFKLETRGVKDVLKKRLKNYYKKQK

Variants of: B1
Test: abundance fitness (aPCA) (normalised: wild type 0, dead -1); higher = more abundant; growth selection in yeast, the domain comes from the species named
Conditions: Homo sapiens

In order of falling abundance fitness:
1. VYKETAITNGCINRMSKEELRAKLSEFKLETRGVKDVLKKRLKNYYKKQK  0.066 ± 0.043
2. VYKEMAITNGCINRMSKEELRAKLSEFKLETRGVKDVLKKRLKNYYKKQK  0.052 ± 0.056
3. VYKEQAITNGCINRMSKEELRAKLSEFKLETRGVKDVLKKRLKNYYKKQK  0.041 ± 0.057
4. VYKEIAITMGCINRMSKEELRAKLSEFKLETRGVKDVLKKRLKNYYKKQK  0.036 ± 0.053
5. VYKEDAITNGCINRMSKEELRAKLSEFKLETRGVKDVLKKRLKNYYKKQK  0.026 ± 0.049
6. VYKEGAITNGCINRMSKEELRAKLSEFKLETRGVKDVLKKRLKNYYKKQK  0.025 ± 0.046
7. VYKEIHITNGCINRMSKEELRAKLSEFKLETRGVKDVLKKRLKNYYKKQK  0.022 ± 0.09
8. VYKEIIITNGCINRMSKEELRAKLSEFKLETRGVKDVLKKRLKNYYKKQK  0.019 ± 0.082
9. VYKEIAITPGCINRMSKEELRAKLSEFKLETRGVKDVLKKRLKNYYKKQK  0.015 ± 0.045
10. VYKEIVITNGCINRMSKEELRAKLSEFKLETRGVKDVLKKRLKNYYKKQK  0.011 ± 0.12
11. VYKEAAITNGCINRMSKEELRAKLSEFKLETRGVKDVLKKRLKNYYKKQK  0.007 ± 0.041
12. VYKEIPITNGCINRMSKEELRAKLSEFKLETRGVKDVLKKRLKNYYKKQK  0.007 ± 0.063
13. VYKEPAITNGCINRMSKEELRAKLSEFKLETRGVKDVLKKRLKNYYKKQK  -0.003 ± 0.043
14. VYKEINITNGCINRMSKEELRAKLSEFKLETRGVKDVLKKRLKNYYKKQK  -0.003 ± 0.063
15. VYKENAITNGCINRMSKEELRAKLSEFKLETRGVKDVLKKRLKNYYKKQK  -0.004 ± 0.045
16. VYKESAITNGCINRMSKEELRAKLSEFKLETRGVKDVLKKRLKNYYKKQK  -0.004 ± 0.036
17. VYKEHAITNGCINRMSKEELRAKLSEFKLETRGVKDVLKKRLKNYYKKQK  -0.006 ± 0.042
18. VYKEIYITNGCINRMSKEELRAKLSEFKLETRGVKDVLKKRLKNYYKKQK  -0.008 ± 0.09
19. VYKEYAITNGCINRMSKEELRAKLSEFKLETRGVKDVLKKRLKNYYKKQK  -0.029 ± 0.044
20. VYKEIAITAGCINRMSKEELRAKLSEFKLETRGVKDVLKKRLKNYYKKQK  -0.033 ± 0.043
21. VYKEVAITNGCINRMSKEELRAKLSEFKLETRGVKDVLKKRLKNYYKKQK  -0.037 ± 0.04
22. VYKEKAITNGCINRMSKEELRAKLSEFKLETRGVKDVLKKRLKNYYKKQK  -0.042 ± 0.056
23. VYKEEAITNGCINRMSKEELRAKLSEFKLETRGVKDVLKKRLKNYYKKQK  -0.044 ± 0.092
24. VYKEIAITCGCINRMSKEELRAKLSEFKLETRGVKDVLKKRLKNYYKKQK  -0.047 ± 0.041
25. VYKELAITNGCINRMSKEELRAKLSEFKLETRGVKDVLKKRLKNYYKKQK  -0.051 ± 0.038
26. VYKEFAITNGCINRMSKEELRAKLSEFKLETRGVKDVLKKRLKNYYKKQK  -0.065 ± 0.048
27. VYKEIAITHGCINRMSKEELRAKLSEFKLETRGVKDVLKKRLKNYYKKQK  -0.066 ± 0.052
28. VYKEIAITSGCINRMSKEELRAKLSEFKLETRGVKDVLKKRLKNYYKKQK  -0.067 ± 0.037
29. VYKEISITNGCINRMSKEELRAKLSEFKLETRGVKDVLKKRLKNYYKKQK  -0.075 ± 0.063
30. VYKEIFITNGCINRMSKEELRAKLSEFKLETRGVKDVLKKRLKNYYKKQK  -0.078 ± 0.077
31. VYKEILITNGCINRMSKEELRAKLSEFKLETRGVKDVLKKRLKNYYKKQK  -0.082 ± 0.07
32. VYKEIGITNGCINRMSKEELRAKLSEFKLETRGVKDVLKKRLKNYYKKQK  -0.084 ± 0.21
33. VYKEIAITFGCINRMSKEELRAKLSEFKLETRGVKDVLKKRLKNYYKKQK  -0.091 ± 0.054
34. VYKEIAITVGCINRMSKEELRAKLSEFKLETRGVKDVLKKRLKNYYKKQK  -0.092 ± 0.043
35. VYKEIEITNGCINRMSKEELRAKLSEFKLETRGVKDVLKKRLKNYYKKQK  -0.092 ± 0.14
36. VYKEIMITNGCINRMSKEELRAKLSEFKLETRGVKDVLKKRLKNYYKKQK  -0.096 ± 0.11
37. VYKERAITNGCINRMSKEELRAKLSEFKLETRGVKDVLKKRLKNYYKKQK  -0.101 ± 0.039
38. VYKEIAITNACINRMSKEELRAKLSEFKLETRGVKDVLKKRLKNYYKKQK  -0.118 ± 0.035
39. VYKEIAITTGCINRMSKEELRAKLSEFKLETRGVKDVLKKRLKNYYKKQK  -0.12 ± 0.042
40. VYKEIAITLGCINRMSKEELRAKLSEFKLETRGVKDVLKKRLKNYYKKQK  -0.127 ± 0.038
41. VYKEIAITNECINRMSKEELRAKLSEFKLETRGVKDVLKKRLKNYYKKQK  -0.155 ± 0.046
42. VYKEICITNGCINRMSKEELRAKLSEFKLETRGVKDVLKKRLKNYYKKQK  -0.172 ± 0.13
43. VYKEIAITQGCINRMSKEELRAKLSEFKLETRGVKDVLKKRLKNYYKKQK  -0.174 ± 0.061
44. VYKEIQITNGCINRMSKEELRAKLSEFKLETRGVKDVLKKRLKNYYKKQK  -0.179 ± 0.11
45. VYKEIDITNGCINRMSKEELRAKLSEFKLETRGVKDVLKKRLKNYYKKQK  -0.183 ± 0.43
46. VYKEWAITNGCINRMSKEELRAKLSEFKLETRGVKDVLKKRLKNYYKKQK  -0.225 ± 0.056
47. VYKEIAITNCCINRMSKEELRAKLSEFKLETRGVKDVLKKRLKNYYKKQK  -0.23 ± 0.04
48. VYKEIAITEGCINRMSKEELRAKLSEFKLETRGVKDVLKKRLKNYYKKQK  -0.241 ± 0.062
49. VYKEIAITDGCINRMSKEELRAKLSEFKLETRGVKDVLKKRLKNYYKKQK  -0.244 ± 0.06
50. VYKEIWITNGCINRMSKEELRAKLSEFKLETRGVKDVLKKRLKNYYKKQK  -0.261 ± 0.16
51. VYKEIAITNFCINRMSKEELRAKLSEFKLETRGVKDVLKKRLKNYYKKQK  -0.323 ± 0.043
52. VYKEIAITWGCINRMSKEELRAKLSEFKLETRGVKDVLKKRLKNYYKKQK  -0.331 ± 0.044
